These results are taken from publication doi:10.1101/301655 (bioRxiv, 2018).

T1: Lon protease (Caulobacter crescentus) (Caulobacter crescentus, UniProt P0CAW0 1-799)
T1 sequence (looked up): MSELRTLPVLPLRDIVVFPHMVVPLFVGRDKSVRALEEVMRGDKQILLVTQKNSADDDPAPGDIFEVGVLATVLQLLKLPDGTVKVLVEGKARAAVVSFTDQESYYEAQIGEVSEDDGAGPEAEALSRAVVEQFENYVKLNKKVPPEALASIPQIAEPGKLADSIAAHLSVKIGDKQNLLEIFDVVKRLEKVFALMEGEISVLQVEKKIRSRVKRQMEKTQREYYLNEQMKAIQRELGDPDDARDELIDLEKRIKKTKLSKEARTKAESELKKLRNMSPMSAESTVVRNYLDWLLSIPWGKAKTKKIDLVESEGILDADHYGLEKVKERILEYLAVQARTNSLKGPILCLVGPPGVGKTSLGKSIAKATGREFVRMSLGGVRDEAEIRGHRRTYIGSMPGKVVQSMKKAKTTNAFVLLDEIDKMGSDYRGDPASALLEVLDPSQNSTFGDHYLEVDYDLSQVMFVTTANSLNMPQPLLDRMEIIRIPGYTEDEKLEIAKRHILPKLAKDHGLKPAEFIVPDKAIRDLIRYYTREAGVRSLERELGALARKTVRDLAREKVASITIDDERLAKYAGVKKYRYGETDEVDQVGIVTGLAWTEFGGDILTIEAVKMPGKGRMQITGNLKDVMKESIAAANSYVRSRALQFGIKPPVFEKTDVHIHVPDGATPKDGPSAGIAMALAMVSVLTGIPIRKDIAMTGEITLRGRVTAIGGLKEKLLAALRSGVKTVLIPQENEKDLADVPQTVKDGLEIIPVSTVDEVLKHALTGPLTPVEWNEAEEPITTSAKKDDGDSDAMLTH

B1: DnaA fragment 143-391 (AAA+ ATPase domain III) (domain or fragment, Caulobacter crescentus, UniProt P0CAU4 143-391, looked up)
chain: SPRTQGLQERFTFETFVPGPANEFAHAVARRIANWADGHFNPVLFHGPYGFGKTHLLNALAWEAMRNAPEKRVVYLTAERFLSTFVRAVMDRQTAAFKEELRAADLLIIDDVHFIAGKQSTQEELFHTLTALVGEGGRVVFSADRPPSAMTEMDAHLRSHLSAGLVCGLEPADRNLRLGILERKIQTLGAAHGFEPSIRPEVMQFLADRFTDSVRELEGALNTLSARAGEGLSRMTLDEVQAILRPHLR
B2: DnaA fragment 117-391 (linker domain II and AAA+ ATPase domain III) (domain or fragment, Caulobacter crescentus, UniProt P0CAU4 117-391, looked up)
chain: AVAAEPIEIVLPVSTDAPTVVAPSAKSPRTQGLQERFTFETFVPGPANEFAHAVARRIANWADGHFNPVLFHGPYGFGKTHLLNALAWEAMRNAPEKRVVYLTAERFLSTFVRAVMDRQTAAFKEELRAADLLIIDDVHFIAGKQSTQEELFHTLTALVGEGGRVVFSADRPPSAMTEMDAHLRSHLSAGLVCGLEPADRNLRLGILERKIQTLGAAHGFEPSIRPEVMQFLADRFTDSVRELEGALNTLSARAGEGLSRMTLDEVQAILRPHLR
B3: DnaA fragment 143-490 (domains III+IV) (domain or fragment, Caulobacter crescentus, UniProt P0CAU4 143-490, looked up)
chain: SPRTQGLQERFTFETFVPGPANEFAHAVARRIANWADGHFNPVLFHGPYGFGKTHLLNALAWEAMRNAPEKRVVYLTAERFLSTFVRAVMDRQTAAFKEELRAADLLIIDDVHFIAGKQSTQEELFHTLTALVGEGGRVVFSADRPPSAMTEMDAHLRSHLSAGLVCGLEPADRNLRLGILERKIQTLGAAHGFEPSIRPEVMQFLADRFTDSVRELEGALNTLSARAGEGLSRMTLDEVQAILRPHLRSGEKRITIDDIQKATAEHYGMKQADLLSERRNRAVARPRQAAMWLAKQLTTRSLPDIGRRFGGRDHTTVLHAVRRIEALRAEDSALSHDLETLTRKLRG

For this experiment, the target named is T1, Lon protease (Caulobacter crescentus). As to the kind of experiment: filtration-spin binding assay.
With B1, the binding result was “binds”.

Consider B2, for which the binding result was “binds”.

B3: the binding result was “binds”.
